Values belong to the substance of their own block, whether it stands above or below them.
What was measured:
[1] = molecular target: wild-type ETB receptor, Flag-tagged, expressed in HEK293A cells (human) (UniProt P24530)
[2] = molecular target: Flag-tagged wild-type endothelin type B receptor (ETBR) (human) (UniProt P24530)
ETBR M296A (human) = ETBR M296A (human) (UniProt P24530)
ETBR V325A (human) = ETBR V325A (human) (UniProt P24530)
ETBR N134A (human) = ETBR N134A (human) (UniProt P24530)
ETBR M300A (human) = ETBR M300A (human) (UniProt P24530)
ETBR M300A (human), sequence (P24530 27-442 M300A): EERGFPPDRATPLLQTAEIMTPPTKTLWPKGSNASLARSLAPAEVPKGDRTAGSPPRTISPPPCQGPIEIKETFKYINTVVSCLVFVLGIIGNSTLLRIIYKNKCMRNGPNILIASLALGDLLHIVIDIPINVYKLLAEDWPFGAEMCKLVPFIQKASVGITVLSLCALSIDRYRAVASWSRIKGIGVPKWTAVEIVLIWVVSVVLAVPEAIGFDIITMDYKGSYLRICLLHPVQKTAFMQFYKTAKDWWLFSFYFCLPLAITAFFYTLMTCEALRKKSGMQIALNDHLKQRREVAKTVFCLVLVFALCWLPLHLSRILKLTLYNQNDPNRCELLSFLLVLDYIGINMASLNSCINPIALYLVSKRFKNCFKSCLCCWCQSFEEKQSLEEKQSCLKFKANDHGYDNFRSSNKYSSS

ETBR H314A (human) = ETBR H314A (human) (UniProt P24530)
ETBR H314A (human), sequence (P24530 27-442 H314A): as the sequence (P24530 27-442 M300A) above, with A274M, H288A counted along it

ETBR S390A (human) = ETBR S390A (human) (UniProt P24530)
ETBR S390A (human), sequence (P24530 27-442 S390A): as the sequence (P24530 27-442 M300A) above, with A274M, S364A counted along it

ETBR V389A (human) = ETBR V389A (human) (UniProt P24530)
ETBR V389A (human), sequence (P24530 27-442 V389A): as the sequence (P24530 27-442 M300A) above, with A274M, V363A counted along it

ETBR R318A (human) = ETBR R318A (human) (UniProt P24530)
ETBR R318A (human), sequence (P24530 27-442 R318A): as the sequence (P24530 27-442 M300A) above, with A274M, R292A counted along it

ETBR T324A (human) = ETBR T324A (human) (UniProt P24530)
ETBR T324A (human), sequence (P24530 27-442 T324A): as the sequence (P24530 27-442 M300A) above, with A274M, T298A counted along it

ETBR K391A (human) = ETBR K391A (human) (UniProt P24530)
ETBR K391A (human), sequence (P24530 27-442 K391A): as the sequence (P24530 27-442 M300A) above, with A274M, K365A counted along it

LgBiT-inserted Gαi1, wild type (NanoBiT G-protein construct), sequence (P63096 whole entry): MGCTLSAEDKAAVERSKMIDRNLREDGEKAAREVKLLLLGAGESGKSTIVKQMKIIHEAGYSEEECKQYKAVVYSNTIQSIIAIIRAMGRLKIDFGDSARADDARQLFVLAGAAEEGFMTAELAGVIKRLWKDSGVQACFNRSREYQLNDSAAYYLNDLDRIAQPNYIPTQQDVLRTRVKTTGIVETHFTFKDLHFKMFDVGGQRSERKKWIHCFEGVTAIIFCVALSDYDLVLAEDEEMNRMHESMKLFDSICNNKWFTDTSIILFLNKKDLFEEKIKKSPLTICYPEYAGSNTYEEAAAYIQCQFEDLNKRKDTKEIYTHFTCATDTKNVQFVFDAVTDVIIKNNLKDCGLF
Flag-tagged wild-type endothelin type B receptor (ETBR) (human), sequence (P24530 27-442): as the sequence (P24530 27-442 M300A) above, with A274M counted along it
wild-type ETB receptor, Flag-tagged, expressed in HEK293A cells (human), sequence (P24530 27-442): as the sequence (P24530 27-442 M300A) above, with A274M counted along it
ETBR N134A (human), sequence (P24530 27-442 N134A): as the sequence (P24530 27-442 M300A) above, with N108A, A274M counted along it
ETBR V325A (human), sequence (P24530 27-442 V325A): as the sequence (P24530 27-442 M300A) above, with A274M, V299A counted along it
ETBR M296A (human), sequence (P24530 27-442 M296A): as the sequence (P24530 27-442 M300A) above, with M270A, A274M counted along it

Substance: Gαi1 G352A (LgBiT-inserted NanoBiT construct) (from UniProt P63096 1-354) (natural protein)
NanoBiT Gi-protein dissociation assay, ET-1-induced, HEK293A cells, mutant Gαi against wild type [1]: 50 % decrease

Substance: LgBiT-inserted Gαi1 C351A (from UniProt P63096 1-354) (natural protein)
Supplementary Table 1f: Emax, %WT, of the ET-1 concentration–response in the NanoBiT Gi-protein dissociation assay, HEK293A cells [2]: 87 % of WT

Substance: LgBiT-inserted Gαi1 D341A (from UniProt P63096 1-354) (natural protein)
Supplementary Table 1f: Emax, %WT, of the ET-1 concentration–response in the NanoBiT Gi-protein dissociation assay, HEK293A cells [2]: 92.1 % of WT

Substance: LgBiT-inserted Gαi1 D350A (from UniProt P63096 1-354) (natural protein)
Supplementary Table 1f: Emax, %WT, of the ET-1 concentration–response in the NanoBiT Gi-protein dissociation assay, HEK293A cells [2]: 92.2 % of WT

Substance: LgBiT-inserted Gαi1 F354A (from UniProt P63096 1-354) (natural protein)
Supplementary Table 1f: Emax, %WT, of the ET-1 concentration–response in the NanoBiT Gi-protein dissociation assay, HEK293A cells [2]: 87.8 % of WT

Substance: LgBiT-inserted Gαi1 K345A (from UniProt P63096 1-354) (natural protein)
Supplementary Table 1f: Emax, %WT, of the ET-1 concentration–response in the NanoBiT Gi-protein dissociation assay, HEK293A cells [2]: 48.9 % of WT

Substance: LgBiT-inserted Gαi1 N347A (from UniProt P63096 1-354) (natural protein)
Supplementary Table 1f: Emax, %WT, of the ET-1 concentration–response in the NanoBiT Gi-protein dissociation assay, HEK293A cells [2]: 96.5 % of WT

Substance: LgBiT-inserted Gαi1, wild type (NanoBiT G-protein construct) (from UniProt P63096 1-354) (natural protein)
Supplementary Table 1d: Emax, %WT, of the ET-1 concentration–response in the NanoBiT Gi-protein dissociation assay, HEK293A cells (ETBR M296A (human)): 36.2 % of WT
Supplementary Table 1d: Emax, %WT, of the ET-1 concentration–response in the NanoBiT Gi-protein dissociation assay, HEK293A cells (ETBR V325A (human)): 63.5 % of WT
Supplementary Table 1c: Emax, %WT, of the ET-1 concentration–response in the NanoBiT Gi-protein dissociation assay, HEK293A cells (ETBR N134A (human)): 54.6 % of WT
Supplementary Table 1d: Emax, %WT, of the ET-1 concentration–response in the NanoBiT Gi-protein dissociation assay, HEK293A cells (ETBR M300A (human)): 46.9 % of WT
Supplementary Table 1e: Emax, %WT, of the ET-1 concentration–response in the NanoBiT Gi-protein dissociation assay, HEK293A cells (ETBR H314A (human)): 90.2 % of WT
Supplementary Table 1c: Emax, %WT, of the ET-1 concentration–response in the NanoBiT Gi-protein dissociation assay, HEK293A cells; WT (35% plasmid) [2]: 62.9 % of WT
Supplementary Table 1c: Emax, %WT, of the ET-1 concentration–response in the NanoBiT Gi-protein dissociation assay, HEK293A cells; WT (50% plasmid) [2]: 76.5 % of WT
Supplementary Table 1c: Emax, %WT, of the ET-1 concentration–response in the NanoBiT Gi-protein dissociation assay, HEK293A cells; WT (100% plasmid) [2]: 100 % of WT
Supplementary Table 1f: Emax, %WT, of the ET-1 concentration–response in the NanoBiT Gi-protein dissociation assay, HEK293A cells; WT Gαi [2]: 100 % of WT
Supplementary Table 1d (same row in 1e): Emax, %WT, of the ET-1 concentration–response in the NanoBiT Gi-protein dissociation assay, HEK293A cells; WT (100% plasmid) [2]: 100 % of WT
Supplementary Table 1c: Emax, %WT, of the ET-1 concentration–response in the NanoBiT Gi-protein dissociation assay, HEK293A cells (ETBR S390A (human)): 28.8 % of WT
Supplementary Table 1e: Emax, %WT, of the ET-1 concentration–response in the NanoBiT Gi-protein dissociation assay, HEK293A cells (ETBR V389A (human)): 96.3 % of WT
Supplementary Table 1e: Emax, %WT, of the ET-1 concentration–response in the NanoBiT Gi-protein dissociation assay, HEK293A cells (ETBR R318A (human)): 88.2 % of WT
Supplementary Table 1e: Emax, %WT, of the ET-1 concentration–response in the NanoBiT Gi-protein dissociation assay, HEK293A cells (ETBR T324A (human)): 77.3 % of WT
Supplementary Table 1e: Emax, %WT, of the ET-1 concentration–response in the NanoBiT Gi-protein dissociation assay, HEK293A cells (ETBR K391A (human)): 91.2 % of WT

Second part, the substance after the results:

NanoBiT Gi-protein dissociation assay, ET-1-induced, HEK293A cells, mutant Gαi against wild type [1]: 50 % decrease
Substance: Gαi1 K345A (LgBiT-inserted NanoBiT construct) (from UniProt P63096 1-354) (natural protein)

Supplementary Table 1f: Emax, %WT, of the ET-1 concentration–response in the NanoBiT Gi-protein dissociation assay, HEK293A cells [2]: 61.8 % of WT
Substance: LgBiT-inserted Gαi1 G352A (from UniProt P63096 1-354) (natural protein)

Supplementary Table 1f: Emax, %WT, of the ET-1 concentration–response in the NanoBiT Gi-protein dissociation assay, HEK293A cells [2]: 7.8 % of WT
Substance: LgBiT-inserted Gαi1 L353A (from UniProt P63096 1-354) (natural protein)

Reference: article PMC11484851, “Structure of endothelin ETB receptor–Gi complex in a conformation stabilized by unique NPxxL motif” (Communications Biology, 2024)
